Kd data for one substance are collected here from patent US7314724B2, “Therapeutic applications of laminin and laminin-derived protein fragments” (University of Washington, priority 1996, dated 2008).

In the test the target is T1, Aβ (1-40) (Homo sapiens, UniProt P05067).
T1 construct: 2 μg of Aβ (1-40)(Bachem Inc., Torrance, Calif. USA; Lot #WM365); purchased Bachem Inc., Torrance, Calif; Lot #WM365
Briefly: Solid phase binding immunoassay of laminin to substrate bound Aβ (1-40). The conditions noted are these: one-site model, single binding constant; read-out: apparent dissociation constant Kd, binding to immobilized Aβ (1-40). The protocol:
2 μg of Aβ (1-40)(Bachem Inc., Torrance, Calif. USA; Lot #WM365) in 40 μl of Tris-buffered saline (TBS)(pH 7.0) was allowed to bind overnight at 4° C. to microtiter wells (Nunc plates, Maxisorb). The next day all of the microtiter wells were blocked by incubating with 300 μl of Tris-buffered saline containing 100 mM Tris-HCl, 50 MM NaCl, 0.05% Tween-20, and 3 mM NaN3 (pH 7.4)(TTBS) plus 2% bovine serum albumin (BSA). Various dilutions (ie. 1:10, 1:30, 1:90, 1:270, 1:810, 1:2430 and 1:7290) of Engelbreth-Holm-Swarm (EHS) mouse tumor laminin (1 mg/ml)(Sigma Chemical Co., St. Louis, Mo., USA) in 250 μl of TBS (pH 7.4) were placed in wells (in triplicate) either containing substrate bound Aβ (1-40) or blank, and allowed to bind overnight at 4° C. overnight. […] The reaction was stopped with 50 μl of 4N H2SO4 and read on a Model 450 microplate reader (Biorad, Hercules, Calif. USA) at 490 nm. Data points representing a mean of triplicate determinations were plotted and the affinity constants (ie. Kd) were determined using Ultrafit (version 2.1, Biosoft, Cambridge, U.K.) as described below.
The binding data were analyzed assuming a thermodynamic equilibrium for the formation of the complex BL, from the laminin ligand in solution, L, and the uncomplexed Aβ adsorbed to the microtiter well, B, according to the equation: Kd=[B]×[L]/[BL]. […]

T1 sequence (P05067 672-711 limits assumed): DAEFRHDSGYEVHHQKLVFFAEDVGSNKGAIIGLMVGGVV

As to “laminin: Engelbreth-Holm-Swarm (EHS) mouse tumor laminin (Sigma); 850 kDa basement membrane glycoprotein of A, B1 and B2 chains”, the Kd was determined as 2.7 nM.
